PMC4943715, “Expression of Biphenyl Synthase Genes and Formation of Phytoalexin Compounds in Three Fire Blight-Infected Pyrus communis Cultivars” (PLoS ONE, 2016)

Key:
Assay in all cases: product formation, HPLC-DAD of ethyl acetate extract; Hanes plot
Format in all cases: biochemical, Pyrus communis
[1] = substrate: CC(C)(COP(=O)(O)OP(=O)(O)OC[C@H]1O[C@@H](n2cnc3c(N)ncnc32)[C@H](O)[C@@H]1OP(=O)(O)O)[C@@H](O)C(=O)NCCC(=O)NCCSC(=O)CC(=O)O; details: benzoyl-CoA as starter at saturation, 0.1 M potassium phosphate pH 7.0, 35°C, 5 min
Description: (§1) product formation, HPLC-DAD of ethyl acetate extract; Hanes plot on PcBIS1

[2] = substrate: CC(C)(COP(=O)(O)OP(=O)(O)OC[C@H]1O[C@@H](n2cnc3c(N)ncnc32)[C@H](O)[C@@H]1OP(=O)(O)O)[C@@H](O)C(=O)NCCC(=O)NCCSC(=O)c1ccccc1; details: malonyl-CoA at saturation, 0.1 M potassium phosphate pH 7.0, 35°C, 5 min
Description: as §1

[3] = substrate: CC(C)(COP(=O)(O)OP(=O)(O)OC[C@H]1O[C@@H](n2cnc3c(N)ncnc32)[C@H](O)[C@@H]1OP(=O)(O)O)[C@@H](O)C(=O)NCCC(=O)NCCSC(=O)c1ccccc1O; details: malonyl-CoA at saturation, 0.1 M potassium phosphate pH 7.0, 35°C, 5 min
Description: as §1

[4] = substrate: CC(C)(COP(=O)(O)OP(=O)(O)OC[C@H]1O[C@@H](n2cnc3c(N)ncnc32)[C@H](O)[C@@H]1OP(=O)(O)O)[C@@H](O)C(=O)NCCC(=O)NCCSC(=O)CC(=O)O; details: benzoyl-CoA as starter at saturation, 0.1 M potassium phosphate pH 7.0, 35°C, 5 min; remark: listed apart in the source
Description: (§2) product formation, HPLC-DAD of ethyl acetate extract; Hanes plot on PcBIS2

[5] = substrate: CC(C)(COP(=O)(O)OP(=O)(O)OC[C@H]1O[C@@H](n2cnc3c(N)ncnc32)[C@H](O)[C@@H]1OP(=O)(O)O)[C@@H](O)C(=O)NCCC(=O)NCCSC(=O)c1ccccc1; details: malonyl-CoA at saturation, 0.1 M potassium phosphate pH 7.0, 35°C, 5 min; remark: listed apart in the source
Description: as §2

[6] = substrate: CC(C)(COP(=O)(O)OP(=O)(O)OC[C@H]1O[C@@H](n2cnc3c(N)ncnc32)[C@H](O)[C@@H]1OP(=O)(O)O)[C@@H](O)C(=O)NCCC(=O)NCCSC(=O)c1ccccc1O; details: malonyl-CoA at saturation, 0.1 M potassium phosphate pH 7.0, 35°C, 5 min; remark: listed apart in the source
Description: as §2

B1: PcBIS1 (Pyrus communis) (protein)
chain: MAPLVKNHVEPPHAKILAIGTANPPNVYYQKDYPDFLFRVTKNEHRTDLREKFDRICEKSRTRKRYLYLTEEILNANPSIYTYGAPSLDVRQDMLNPEVPKLGQQAALKAIKEWGQPISKITHLIFCTASCVDMPGADFQLVKLLGLNPSVTRTMIYEAGCYAGATVLRLAKDFAENNEDARVLVVCAEITTVFFHGLTDTHLDILVGQALFADGASAVIVGANPEPEIERPLFEIVACRQTIIPNSEHGVVANIREMGFNYYLSGDVPKFVGGSVVDFLTKTFEKVDGKNKDWNSLFLSVHPGGPAIVDQVEEQLGLKEGKLRATRHVLSEYGNMGAPSVHFILDEMRNKSIGEGKATTGEGLEWGVVIGIGPGLTVETAVLRSESIPC
- Km [1]: 13.7 ± 2.9 µM
- Km [2]: 1.1 ± 0.2 µM
- kcat [2]: 0.055 ± 0.005 s⁻¹
- kcat/Km [2]: 50000 M⁻¹ s⁻¹
- Km [3]: 78.4 ± 4.8 µM
- kcat [3]: 0.77 ± 0.075 s⁻¹
- kcat/Km [3]: 9820 M⁻¹ s⁻¹

B2: PcBIS2 (Pyrus communis) (protein)
chain: MAPLVKNHVEPPHAKILAIGTANPPNVYYQKDYPDFLFRVTKNEHRTDLREKFDRICEKSRTRKRYLYLTEEILNANPSIYTYGAPSLDVRQDMLNPEVPKLGQQAALKAIKEWGQPISKITHLIFCTASCVDMPGADFQLVKLLGLNPSVTRTMIYEAGCYAGATVLRLAKDFAENNEDARVLVVCAEITTVFFHGLTDTHLDILVGQALFADGASAVIVGANPEPEIESPLFEIVACRQTIIPNSEHGVVANIREMGFNYYLSGEVPKFVGGNVVDFLTKTFEKVDGKNKDWNSLFFSVHPGGPAIVDQVEEQLGLKEGKLRATRHVLSEYGNMGAPSVHFILDEMRKKSIEEGKATTGEGLEWGVVIGIGPGLTVETAVLRSESIPC
- Km [4]: 11.6 ± 2.2 µM
- Km [5]: 0.9 ± 0.1 µM
- kcat [5]: 0.035 ± 0.00167 s⁻¹
- kcat/Km [5]: 38900 M⁻¹ s⁻¹
- Km [6]: 95.2 ± 5.4 µM
- kcat [6]: 0.89 ± 0.09 s⁻¹
- kcat/Km [6]: 9350 M⁻¹ s⁻¹
